According to US20240240140A1:

Molecular target: mouse TLR5 (toll-like receptor 5) expressed on HEK293/mTLR5 cell line (mouse) (UniProt Q9JLF7)
Assay: cell-based or functional assay

UniProt Q9JLF7, sequence (Q9JLF7 27-859): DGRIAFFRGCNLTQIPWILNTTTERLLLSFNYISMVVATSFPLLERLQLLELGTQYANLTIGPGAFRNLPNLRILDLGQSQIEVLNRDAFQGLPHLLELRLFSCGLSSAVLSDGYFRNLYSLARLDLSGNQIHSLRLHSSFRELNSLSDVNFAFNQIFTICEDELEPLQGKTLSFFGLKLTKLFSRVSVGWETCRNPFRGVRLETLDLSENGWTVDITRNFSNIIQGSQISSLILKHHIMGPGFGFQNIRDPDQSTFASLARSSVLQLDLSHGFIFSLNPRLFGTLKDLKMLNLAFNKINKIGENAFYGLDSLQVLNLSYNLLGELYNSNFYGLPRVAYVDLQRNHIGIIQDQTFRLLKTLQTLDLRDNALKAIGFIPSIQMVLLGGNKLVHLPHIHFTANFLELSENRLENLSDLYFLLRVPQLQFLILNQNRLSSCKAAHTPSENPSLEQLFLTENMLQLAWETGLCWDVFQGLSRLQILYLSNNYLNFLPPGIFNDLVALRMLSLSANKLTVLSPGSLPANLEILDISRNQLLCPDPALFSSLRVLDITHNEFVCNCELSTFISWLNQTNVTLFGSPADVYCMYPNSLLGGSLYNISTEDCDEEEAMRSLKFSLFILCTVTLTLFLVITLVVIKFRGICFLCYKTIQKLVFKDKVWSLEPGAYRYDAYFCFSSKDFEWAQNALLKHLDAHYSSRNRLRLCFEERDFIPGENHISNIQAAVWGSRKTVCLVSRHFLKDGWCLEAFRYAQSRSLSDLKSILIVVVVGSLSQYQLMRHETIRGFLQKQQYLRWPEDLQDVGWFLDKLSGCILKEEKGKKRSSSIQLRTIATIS

Question: “sgFliC (Salmonella gallinarum-derived FliC, filament structural protein, expressed from psgFliC and secreted by attenuated Salmonella gallinarum SG4052) (from UniProt Q06972 1-494) (ligand)” was tested. Which QUANTI-Blue SEAP assay using HEK293/mTLR5 cell line (TLR5 stimulation relative to FLA-ST) did it give?
Answer: 2 fold
